Test [1] has as its target CHR-derived peptide C34 of HIV-1 92RW020 gp41 with the N126K mutation (HIV-1 92RW020). Briefly: ITC. In general terms: ITC needs no label: the signal is the heat of the interaction.
Test [2] concerns the target CHR-derived peptide C34 of HIV-1 92RW020 gp41 (HIV-1 92RW020). Briefly: ITC.
Test [3] has as its target CHR-derived peptide C34 of HIV-1 92RW020 gp41 with the N126K mutation (HIV-1 92RW020). Kind of test: circular dichroism spectroscopy. In general terms: Circular dichroism is widely used to follow secondary structure.
Test [4] addresses CHR-derived peptide C34 of HIV-1 JRFL gp41 (HIV-1 JRFL). Briefly: ITC.
Test [5] deals with CHR-derived peptide C34 of HIV-1 JRFL gp41 with the N126K mutation (HIV-1 JRFL). Briefly: ITC.
For test [6] the target is unchanged. Kind of test: circular dichroism spectroscopy.
For test [7], the target named is CHR-derived peptide C34 of HIV-1 NL4-3 gp41 with the N126K mutation (HIV-1 NL4-3). Kind of test: ITC.
For test [8] the target is unchanged. Briefly: circular dichroism spectroscopy.

For orientation: stoichiometry N means the number of molecules, sites or subunits per partner or assembly. “NHR-derived peptide N36 of HIV-1 92RW020 gp41”: in test [1], the Ka is 1.3e+06 M⁻¹, the dH was -55 kcal/mol and the stoichiometry N amounted to 1 Site. In test [2], this substance registered a Ka of 940000 M⁻¹, a dH of -49 kcal/mol and a stoichiometry N of 1.4 Site. The Tm of the complex in test [3] is 62.7 °C.

In test [4], “NHR-derived peptide N36 of HIV-1 JRFL gp41” yielded a Ka of 430000 M⁻¹, a dH of -44 kcal/mol and a stoichiometry N of 1.3 Site. In test [5], this substance displayed a Ka of 1.2e+06 M⁻¹, a dH of -35 kcal/mol and a stoichiometry N of 1.4 Site. Further, in test [6], the Tm of the complex worked out at 62.7 °C.

For the substance “NHR-derived peptide N36 of HIV-1 NL4-3 gp41 (from UniProt P04578 546-581)”, in test [7], the Ka was found to be 1.9e+06 M⁻¹, the dH was -38 kcal/mol and the stoichiometry N was 1.2 Site. For the same substance, in test [8], the Tm of the complex was 68.5 °C.

Values taken from publication PMC7150849.
